{"source": "paper PMC6842044", "target": "Glial cell line-derived neurotrophic factor (GDNF), immobilised for SPR (UniProt P39905)", "assay": "SPR", "data": [{"binder": "Activin receptor-like kinase 5 (ALK5), analyte in SPR (receptor) LQCFCHLCTKDNFTCVTDGLCFVSVTETTDKVIHNSMCIAEIDLIPRDRPFVCAPSSKTGSVTTTYCCNQDHCNKIELPTTVKSSPGLGPVELAAVIAGPVCFVCISLMLMVYICHNRTVIHHRVPNEEDPSLDRPFISEGTTLKDLIYDMTTSGSGSGLPLLVQRTIARTIVLQESIGKGRFGEVWRGKWRGEEVAVKIFSSREERSWFREAEIYQTVMLRHENILGFIAADNKDNGTWTQLWLVSDYHEHGSLFDYLNRYTVTVEGMIKLALSTASGLAHLHMEIVGTQGKPAIAHRDLKSKNILVKKNGTCCIADLGLAVRHDSATDTIDIAPNHRVGTKRYMAPEVLDDSINMKHFESFKRADIYAMGLVFWEIARRCSIGGIHEDYQLPYYDLVPSDPSVEEMRKVVCEQKLRPNIPNRWQSCEALRVMAKIMRECWYANGAARLTALRIKKTLSQLSQQEGIKM", "values": [{"measurement": "Kd", "value": 0.0855, "unit": "µM"}]}]}
